Reference: CN1542019A (CHINA ANTIBODY PHARMACY CO LTD, dated 2004)

Tests used:
[1] = biological target: T1, CD22抗原 (CD22 on Raji human lymphoma cells) (human, UniProt P20273 20-847); assay: flow cytometry on Raji human lymphoma cells, four purified batches of different production and storage time
T1 construct: whole, on cells; The assays are on Raji cells; also called Raji人淋巴瘤细胞; Raji细胞
T1 sequence (looked up): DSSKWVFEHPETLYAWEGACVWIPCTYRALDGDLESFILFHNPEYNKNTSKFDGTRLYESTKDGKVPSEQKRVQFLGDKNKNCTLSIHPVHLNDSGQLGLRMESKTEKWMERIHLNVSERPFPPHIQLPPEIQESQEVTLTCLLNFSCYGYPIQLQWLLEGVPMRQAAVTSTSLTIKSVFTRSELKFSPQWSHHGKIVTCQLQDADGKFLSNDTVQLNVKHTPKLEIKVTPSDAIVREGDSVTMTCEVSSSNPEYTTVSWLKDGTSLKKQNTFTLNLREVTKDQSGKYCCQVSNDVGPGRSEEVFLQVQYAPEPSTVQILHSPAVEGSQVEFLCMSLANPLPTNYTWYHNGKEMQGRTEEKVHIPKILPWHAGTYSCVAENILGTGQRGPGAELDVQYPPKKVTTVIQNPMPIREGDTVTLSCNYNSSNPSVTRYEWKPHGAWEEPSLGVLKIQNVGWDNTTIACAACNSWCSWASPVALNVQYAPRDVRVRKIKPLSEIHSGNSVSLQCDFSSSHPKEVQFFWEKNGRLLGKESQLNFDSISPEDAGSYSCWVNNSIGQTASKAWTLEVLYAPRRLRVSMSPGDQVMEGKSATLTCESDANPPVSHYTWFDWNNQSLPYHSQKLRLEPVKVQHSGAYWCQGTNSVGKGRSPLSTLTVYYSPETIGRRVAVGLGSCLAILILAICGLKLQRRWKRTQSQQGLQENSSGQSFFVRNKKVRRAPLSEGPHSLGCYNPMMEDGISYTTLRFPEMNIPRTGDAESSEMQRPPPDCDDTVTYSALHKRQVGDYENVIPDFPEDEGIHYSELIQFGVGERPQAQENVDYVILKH

[2] = biological target: T1, CD22抗原 (CD22 on Raji human lymphoma …); assay: competitive flow cytometry on Raji cells; unlabelled murine parent antibody as competitor of its FITC conjugate

B1: 嵌合抗体SM03 (chimeric anti-CD22 antibody SM03, human IgG1/human Kappa, variable regions modified at the N- and C-termini) (antibody, V domains shown)
VH: QVQLQESGGGLVKPGGSLKLSCAASGFAFSIYDMSWVRQWPEKRLEWVAYISSGGGTTYYPDTVKGRFTISRDNAKNTLYLQMSSLKSEDTAMYYCARHSGYGSSYGVLFAYWGQGTLVTVSS
VL: DIQLTQTTSSLSASLGDRVTISCRASQDISNYLNWYQQKPDGTVKLLIYYTSILHSGVPSRFSGSGSGTDYSLTISNLEQEDFATYFCQQGNTLPWTFGGGTKLEIKR
notes: Expressed in SP2/0 cells, purified on Protein A; also called 嵌合单克隆抗体SM03; SM03试产第一批抗体
binding result [1]: binds

B2: 嵌合抗体SM03的鼠源母抗体 (murine parent antibody of SM03) (antibody, V domains shown)
VH: EVQLVESGGGLVKPGGSLKLSCAASGFAFSIYDMSWVRQWPEKRLEWVAYISSGGGTTYYPDTVKGRFTISRDNAKNTLYLQMSSLKSEDTAMYYCARHSGYGSSYGVLFAYWGQGTLVTVSA
VL: DIQMTQTTSSLSASLGDRVTISCRASQDISNYLNWYQQKPDGTVKLLIYYTSILHSGVPSRFSGSGSGTDYSLTISNLEQEDFATYFCQQGNTLPWTFGGGTKLEIK
notes: Whole mouse hybridoma antibody (mouse IgG heavy chain, kappa light chain by the cloning primers); also called 鼠源抗体; FITC-鼠源母抗体偶联物
binding result [2]: binds
